Data reported in patent publication CN113683688A.

Target: HIV-1 P24重组蛋白 (原核细胞大肠杆菌表达的HIV-1 P24全长蛋白) (HIV-1) (UniProt P04591)
Test: indirect ELISA, serial two-fold dilution of the antibody

B1: 抗HIV-1 P24兔单克隆抗体OTIR5D12 (antibody, V domains shown)
VH: QSLEESGGRLVTPGTPLTLTCTASGFSLNSYYMTWVRQAPGKGLEWIGILDTSGSTDYASWAKGRFTISKTSTTVDLKVTSPTAADTATYFCARGAYYSAYGDAWGQGTLVTVSS
VL: AQVLTQTPSPVSAVLGGTVTINCQSSQSVYNSNWLSWFQQKPGQPPKLLIYKASNLASGVPSRFKGSGSGTQFTLTISSVQCDDAATYYCQGGYNNGDGFGGGTEVVVK
Q: How did the 效价 (antibody titer) turn out when B1 was run?
A: 6.6e+06
